US20190336589A1, “IMMUNIZING PEPTIDE, METHOD FOR PRODUCING IMMUNIZING PEPTIDE, PHARMACEUTICAL COMPOSITION FOR IMMUNE DISEASE CONTAINING SAME, AND METHOD FOR TREATING IMMUNE DISEASE” (OSAKA UNIVERSITY, priority 2015, published 2019)

Experiments:
[1] = target: T1, 3A9 TCR / complex of HEL antigen and I-A^k on LK35.2 cells (Mus musculus, UniProt P01910+P06343); assay: Immunization of mice with HEL protein or HEL peptides; serum inhibition of soluble single-chain 3A9 TCR binding to HEL protein-pulsed LK35.2 cells; type: in vivo, mice (B10.A strain); conditions: immunogen with CFA subcutaneously; serum two weeks after administration
T1 construct: LK35.2 cells expressing I-A^k (the MHC class II molecule); endogenous in cells; host or cells: LK35.2 cells (I-A^k); the 3A9 scTCR-Fc is culture supernatant of transfected 293T cells
T1 sequence (P01910 24-256): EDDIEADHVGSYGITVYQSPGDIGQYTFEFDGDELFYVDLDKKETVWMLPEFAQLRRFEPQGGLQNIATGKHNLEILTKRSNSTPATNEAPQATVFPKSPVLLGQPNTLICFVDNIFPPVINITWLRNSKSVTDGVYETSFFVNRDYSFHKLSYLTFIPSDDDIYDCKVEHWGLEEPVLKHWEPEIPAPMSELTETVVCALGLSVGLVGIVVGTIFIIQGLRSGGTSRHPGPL
T1 sequence (P06343 28-263): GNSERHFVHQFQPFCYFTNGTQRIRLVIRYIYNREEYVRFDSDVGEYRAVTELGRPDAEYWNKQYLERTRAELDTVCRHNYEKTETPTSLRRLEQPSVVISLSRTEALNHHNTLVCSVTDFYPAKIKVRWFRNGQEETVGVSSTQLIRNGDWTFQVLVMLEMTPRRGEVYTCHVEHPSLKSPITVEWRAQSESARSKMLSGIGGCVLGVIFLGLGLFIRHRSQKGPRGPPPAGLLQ
Protocol: (§1) 30 nmol of the HEL peptide 41-70 or the HEL peptide 48-61 was mixed with a complete Freund's adjuvant. Each of the thus-obtained mixture was administered subcutaneously to mice (B10.A strain). Two weeks after the administration, whole blood was collected from each mouse, and serum was collected from the whole blood.
LK35.2 cells were pulsed with the HEL protein in the same manner as in the item (2) in Example 1B, except that the HEL protein was added instead of the HEL protein, the HEL peptide 41-70, and the HEL peptide 48-61. The cultured LK35.2 cells were collected from the wells. Thereafter, the collected LK35.2 cells were used in inhibition of TCR recognition by an antibody to be described below.
Flow cytometry analysis was performed in the same manner as in the item (3) in Example 1B, except that serums of the HEL peptide 41-70-immunized mice or serums of the HEL peptide 48-61-immunized mice were used in addition to the serums of the HEL protein-immunized mice and that the LK35.2 cells obtained in the item (1) in Example 2B were used instead of the LK35.2 cells obtained in the item (2) in Example 1B. As Control 1, the flow cytometry analysis was performed in the same manner, except that serums collected from non-immunized mice were used instead of the serums of the HEL protein-immunized mice, the serums of the HEL peptide 41-70-immunized mice, and the serums of the HEL peptide 48-61-immunized mice. As Control 2, the flow cytometry analysis was performed in the same manner, except that the HEL protein was not added.
30 nmol of the HEL peptide 48-77 (Y53A L56A) was mixed with a complete Freund's adjuvant, and the resultant mixture was administered subcutaneously to mice (B10.A strain). Two weeks after the administration, whole blood was collected from each mouse, and serum was collected from the whole blood.
Flow cytometry analysis was performed in the same manner as in the item (3) in Example 1B, except that serums of the HEL peptide 48-77 (Y53A L56A)-immunized mice were used in addition to the serums of the HEL protein-immunized mice and that the LK35.2 cells obtained in the item (2) in Example 4 were used instead of the LK35.2 cells obtained in the item (2) in Example 1B. As controls, the flow cytometry analysis was performed in the same manner, except that serums collected from non-immunized mice were used instead of the serums of the HEL protein-immunized mice and the serums of the HEL peptide 48-77 (Y53A L56A)-immunized mice.

[2] = target: T2, complex of HEL peptide and MHC class II molecule (I-A^k) on LK35.2 cells (Mus musculus, UniProt P01910+P06343); assay: Immunization of mice with HEL peptides; serum IgG1 binding to HEL peptide-pulsed LK35.2 cells (flow cytometry); type: in vivo, mice (B10.A strain); conditions: 30 nmol peptide with CFA subcutaneously; serum two weeks after administration
T2 construct: LK35.2 cells expressing I-A^k (the MHC class II molecule); endogenous in cells; host or cells: LK35.2 cells
T2 sequence (P01910 24-256): as the sequence (P01910 24-256) above
T2 sequence (P06343 28-263): as the sequence (P06343 28-263) above
Protocol: as §1
LK35.2 cells were pulsed with the HEL peptide in the same manner as in the item (2) in Example 1B, except that the HEL peptide 41-70 or the HEL peptide 48-61 was added instead of the HEL protein, the HEL peptide 41-70, and the HEL peptide 48-61. The cultured LK35.2 cells were collected from the wells. Thereafter, the collected LK35.2 cells were used in antibody detection to be described below.
Flow cytometry analysis was performed in the same manner as in the item (3) in Example 1A, except that the LK35.2 cells in the item (2) in Example 2A were used instead of the 293 T cells and that an Alexa®647-labeled anti-mouse IgG1 antibody (catalog number: A21240, Invitrogen) was used instead of the APC-labeled anti-mouse IgG (H+L) antibody (peptide added groups). As Control 1, the flow cytometry analysis was performed in the same manner, except that serums collected from non-immunized mice were used instead of the serums of the HEL peptide-immunized mice. As Control 2, the flow cytometry analysis was performed in the same manner, except that the HEL peptide was not added (peptide non-added groups).

[3] = target: T1, 3A9 TCR / complex of HEL antigen and I-A^k on LK35.2 cells; assay: Inhibition of TCR recognition by antibody: binding of soluble single-chain 3A9 TCR to antigen-pulsed LK35.2 cells after reaction with serum; conditions: cells reacted with serums of HEL-immunized mice, diluted 10-fold
Text: From 3A9 T cell hybridomas (obtained from Laboratory of Vaccine Materials, National Institutes of Biomedical Innovation) expressing a TCR that recognizes a complex of a peptide consisting of the amino acid sequence of SEQ ID NO: 1 (the T-cell epitope) and I-A^k (the MHC class II molecule), the TCR was cloned. Specifically, from cDNA derived from the 3A9 T cell hybridomas, a polynucleotide encoding the following α-chain and β-chain of 3A9 TCR linked by a GGGGS linker was cloned into a pME18S vector. Thus, a 3A9 TCR expression vector was produced. The vector was designed so that the Fc domain of human IgG is added to the C terminus of an expressed protein. Thus, by introducing the expression vector to a host, a soluble single-chain TCR composed of 3A9 TCR and Fc bound thereto is expressed (3A9 scTCR-Fc).
Next, the 293 T cells were cultured for 96 hours under the same 30 culture conditions as in the item (1) in Example 1A, except that the 3A9 TCR expression vector was introduced instead of the I-A^k c expression vector and the I-A^k f expression vector. After the culture, the supernatant was collected, and the collected supernatant was used as the soluble single-chain TCR.
LK35.2 cells expressing I-A^k (the MHC class II molecule) were seeded in a 24-well plate at a density of 1×10^5 cells/1 ml/well. Next, the HEL protein was added to the wells at a concentration of 200 μg/ml, or the HEL peptide 41-70 or the HEL peptide 48-61 was added to the wells at a concentration of 20 μmol/l. The LK35.2 cells were pulsed with the HEL protein or the HEL peptide by culturing the HEL protein-added group for another 48 hours and the HEL peptide added groups for another 24 hours under the above-described culture conditions. The cultured LK35.2 cells were collected from the wells. Thereafter, the collected LK35.2 cells were used in inhibition of TCR recognition by an antibody to be described below.
Serum collected from each of the HEL protein-immunized mice was diluted 10-fold with HBSS to obtain a diluted serum. Next, 10 μl of the diluted serum was added to the LK35.2 cells obtained in the above item (2) to cause a reaction. Further, a dimer of 20 μl of the supernatant obtained in the above item (1) and 10 μl of an APC-labeled anti-human IgG Fc antibody (code number: 109-136-098, Jackson ImmunoResearch) diluted 100-fold was formed beforehand, and the LK35.2 cells after the reaction were reacted with the dimer. Then, the LK35.2 cells were analyzed by flow cytometry. As Control 1, the flow cytometry analysis was performed in the same manner, except that serums collected from non-immunized mice were used instead of the serums of the HEL protein-immunized mice. […]

Row | binding of soluble single-chain TCR to LK35.2 cells pulsed with HEL protein after reaction with serums of mice immunized with the substance [1] | IgG1 binding of serum of peptide-immunized mice to LK35.2 cells pulsed with HEL peptide 41-70 [2] | IgG1 binding of serum of peptide-immunized mice to LK35.2 cells pulsed with HEL peptide 48-61 [2] | binding of soluble single-chain TCR to LK35.2 cells pulsed with the antigen [3] | Sequence
1 | not observed | observed | not observed | not observed | QATNRNTDGSTDYGILQINSRWWCNDGRTP (Gallus gallus domesticus) [HEL peptide 41-70]
2 | observed | not observed | not observed | observed | DGSTDYGILQINSR (Gallus gallus domesticus) [HEL peptide 48-61, reference compound]
